Reference: patent publication US20260209333A1 (VETMAB BIOSCIENCES, published 2026)
Values belong to the binder of their own block, whether it stands above or below them.

Tests used:
[1] = target: T1, Recombinant canine IL23 (single chain p40 + linker + p19, Avitag, polyHis tag) (canine); assay: Biacore affinity assay ('Active' = specific binding to canine IL23)
T1 construct: Single chain p40-linker-p19 with a tag for site specific biotinylation and a polyHis tag, expressed in CHO cells as a monomeric protein; also called canine IL23 polypeptide
T1 chain: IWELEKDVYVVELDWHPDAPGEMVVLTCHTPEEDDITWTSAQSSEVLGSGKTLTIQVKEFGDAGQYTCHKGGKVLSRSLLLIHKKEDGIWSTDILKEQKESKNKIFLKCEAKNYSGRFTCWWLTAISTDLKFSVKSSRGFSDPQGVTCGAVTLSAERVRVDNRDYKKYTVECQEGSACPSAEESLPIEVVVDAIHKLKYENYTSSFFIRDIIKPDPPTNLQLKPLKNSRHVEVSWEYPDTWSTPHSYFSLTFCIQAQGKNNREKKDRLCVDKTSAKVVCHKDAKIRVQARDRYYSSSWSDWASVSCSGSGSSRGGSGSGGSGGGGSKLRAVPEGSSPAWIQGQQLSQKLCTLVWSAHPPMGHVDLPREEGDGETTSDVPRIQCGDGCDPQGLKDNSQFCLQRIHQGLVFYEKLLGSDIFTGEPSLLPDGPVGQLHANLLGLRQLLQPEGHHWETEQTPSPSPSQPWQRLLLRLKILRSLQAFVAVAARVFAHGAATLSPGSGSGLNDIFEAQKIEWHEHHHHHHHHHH

[2] = target: T2, Canine TNF-alpha (Sino Biologicals) (canine, UniProt P51742 77-233); assay: SPR, Biacore 8K, antibody captured on Protein A chip, antigen as analyte, 25 C
T2 construct: Bought protein; also called Canine TNFα
Method: This study was performed to measure the binding affinity of antibodies to antigens using a Biacore 8K.
(§1) All the data were processed using the Biacore 8K Evaluation software version 3.0. Flow cell 1 and blank injection of buffer in each cycle were used as double reference for Response Units subtraction.

[3] = target: T1, Recombinant canine IL23 (single chain …); assay: as above
Method: (§2) This study was performed to measure the binding affinity of anti-IL23 antibodies to IL23 and p40 antigens using a Biacore 8K.
as §1

[4] = target: T3, Canine p40 polypeptide (canine, UniProt Q28268 23-329); assay: as above
T3 sequence (looked up): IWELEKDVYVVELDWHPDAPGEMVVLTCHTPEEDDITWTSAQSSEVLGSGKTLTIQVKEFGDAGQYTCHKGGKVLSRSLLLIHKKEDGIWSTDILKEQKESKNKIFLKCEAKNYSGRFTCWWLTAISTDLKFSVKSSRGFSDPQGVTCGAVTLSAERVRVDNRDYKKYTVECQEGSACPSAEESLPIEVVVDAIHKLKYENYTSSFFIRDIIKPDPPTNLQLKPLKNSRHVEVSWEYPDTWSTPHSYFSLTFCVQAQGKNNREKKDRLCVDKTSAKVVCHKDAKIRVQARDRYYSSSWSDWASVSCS
Method: as §2, §1

T2 sequence (P51742 77-233 limits assumed): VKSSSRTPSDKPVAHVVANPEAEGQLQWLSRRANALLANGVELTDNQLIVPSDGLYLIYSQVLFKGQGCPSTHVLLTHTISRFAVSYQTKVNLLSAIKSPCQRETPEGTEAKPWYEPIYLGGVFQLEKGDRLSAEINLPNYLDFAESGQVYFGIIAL

B1: Anti-IL23 C340 VL / caninized VH variant V1 (antibody, V domains shown)
VH: EVQLVQSGAEVKKPGASVKVSCKGSGYSFTTYWLGWVRQAPGAGLDWMGIMSPVDSDIRYAGKFQGQVTMSVDTSTSTAYMELSSLRAGDIAVYYCARRRPGQGYFDFWGQGTLVTVSS
VL: DIQMTQSPSSLSASVGDRVTITCRASQGISSWLAWYQQKPEKAPKSLIYAASSLQSGVPSRFSGSGSGTDFTLTISSLQPEDFATYYCQQYNIYPYTFGQGTKLEIK
notes: also called VL C340 + VH V1
binding result [1]: binds

B2: Caninized anti-IL23 with VL domain V2.1 and VH domain V1.1 (antibody, V domains shown)
VH: EVQLVQSGAEVKKPGASVKVSCKGSGYSFTTYWLGWVRQAPGAGLDWMGIMSPVDSDIRYSPSFQGQVTMSVDTSTSTAYMELSSLRAGDIAVYYCARRRPGQGYFDFWGQGTLVTVSS
VL: DIVMTQTPLSLSVSPGEPASISCRASQGISSWLAWYQQKAEKAPKSLIYAASSLQSGVPDRFSGSGSGTDFTLRIGRVEAEDAGIYYCQQYNIYPYTFGQGTRLEVR
notes: also called VL V2.1 + VH V1.1; exemplary caninized anti-IL23
binding result [1]: binds

B5: Chimeric anti-IL23 antibody (clone C340 VL and VH domains fused to canine kappa light chain constant region and canine IgG-B constant region) (antibody, V domains shown)
VH: EVQLVQSGAEVKKPGESLKISCKGSGYSFTTYWLGWVRQMPGKGLDWIGIMSPVDSDIRYSPSFQGQVTMSVDKSITTAYLQWNSLKASDTAMYYCARRRPGQGYFDFWGQGTLVTVSS
VL: DIQMTQSPSSLSASVGDRVTITCRASQGISSWLAWYQQKPEKAPKSLIYAASSLQSGVPSRFSGSGSGTDFTLTISSLQPEDFATYYCQQYNIYPYTFGQGTKLEIKR
notes: also called Anti-IL23-VH-VL; Anti-IL23 (full length IgG form)
Kd [3]: 0.58 nM
koff [3]: 0.00338 s⁻¹
kon [3]: 5.83e+06 M⁻¹ s⁻¹
Kd [4]: 1.02 nM
koff [4]: 0.00478 s⁻¹
kon [4]: 4.68e+06 M⁻¹ s⁻¹

Now from value to binder:

Kd [2]: 3.91 nM
koff [2]: 0.000818 s⁻¹
kon [2]: 209000 M⁻¹ s⁻¹
B3: Caninized anti-TNFα D2E7 antibody (caninized VL + canine kappa constant region; caninized VH + canine IgG-B constant region) (antibody, V domains shown)
VH: EVQLVESGGDLVKPAESLRLSCVASGFTFDDYAMHWVRQAPGKGLEWVSAITWNSGHIDYADSVEGRFTISRDNARNTLYLQMNSLRAEDTAVYYCAKVSYLSTASSLDYWGQGTLVTVSS
VL: DIVMTQTPLSLSVSPGEPASISCRASQGIRNYLAWYQQKPGKAPKLLIYAASTLQSGVPDRFSGSGSGTDFTLRIGRVEAEDAGIYYCQRYNRAPYTFGQGTRLEVRR
notes: Expressed in Expi293F cells, 150 kDa, captured on a Protein A chip; also called Caninized Anti-TNF-VH-VL

binding result [1]: binds
B4: Anti-IL23 caninized VL variant V2 / caninized VH variant V6 (antibody, human IgG1, V domains shown)
VH: EVQLVESGGDLVKPGGSLRLSCKGSGYSFTTYWLGWVRQAPGKGLQWIGIMSPVDSDIRYADAVKGRFTVSRDNAKRTLYLQMNSLRAEDTAIYYCARRRPGQGYFDFWGQGTLVTVSS
VL: DIVMTQTPLSLSVSPGEPASISCRASQGISSWLAWYLQKAGQSPRLLPYAASSLQSGVPDRFSGSGSGTDFTLRIGRVEAEDAGIYYCQQYNIYPYTFGQGTRLEVR
notes: also called VL V2 + VH V6
